From the RNAGym collection of RNA variant scans (doi:10.1073/pnas.2313332121)

B1: TPR t1 (parent)
chain: GACCAAUCUGCCCUCAGAGCUCGAGAACAUCUUCGGAUGCAGAGGAGGCAGGCUUCGGUGGCGCGAUAGCGCCAACGUCCUCAACCUCCAAUGCAUCCCACCACAUGAUGAUGCCUGAAGAGCCUUGGUUUUUUG

Variants of: B1
Experiment: polymerase ribozyme fitness, log enrichment relative to wild type (log ratio); higher = more active; in vitro selection for triplet polymerase activity
Summary of the method: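 For each subunit of a heterodimeric triplet polymerase ribozyme, a mutant library was built by PCR and transcribed, then taken through a single in vitro selection round in triplicate. Selection involved annealing to a biotinylated primer, the partner subunit and triplets, incubation frozen at −7 °C, gel excision of extended constructs, capture on streptavidin beads and RT-PCR. Genotypes were retained after Illumina sequencing of inputs and outputs only with ≥10 input reads and ≥1 read in each output. Fitness is defined as the logarithm of a genotype's enrichment relative to wild-type enrichment, using inverse-variance-weighted averages across replicates, with the logarithm taken to base 2.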

Variant | polymerase ribozyme fitness (log ratio)
C70U C79G | -2.8
A26G G48A C49G A121U | -0.318
A84U A105C U116C | -5.74
C8U G61A A84C | 0.393
C70A A121G | 0.93
C70U U78A G120U G128A | -2.18
A50U U112A | -0.102
A6U G44A C56U | -0.291
G51C G60C | -4.64
G36C U78C | -1.49
C11A U78A G120A | 1.31
C13A C101U | -2.13
C80U A111G | -0.196
C11G C72G C82G G117C | -3.64
A43G G113U | -2.72
A18C | -2.11
C11G G120U | 1.37
G60A G93A A121U | 1.81
C11G A37U G69A A83C A121C | -1.05
A16C U38G C70A | -4.31
A5U A29U | -1.95
C49A C88A G113U A119U G128U | -6.41
G117A | -1.1
C11A A27G | -6.66

Variant | polymerase ribozyme fitness (log ratio)
C15G C40U | -2.91
C3A C8A C40G G61U A100C | -2.95
A37U G71U | -0.54
C20A G117U | -3.2
C53G G69C | -0.98
U7G C11U A18C G45U C53A | -2.72
A46U A105C A119G C124A | -1.39
C62G A121U | 0.647
C11U C34A U87A | -3.12
G19A G63A U92A | -4.56
C12G G61A G128U | -1.84
C12A A29U C86A | -2.52
C53U C72U C82G C123G | -0.45
A41U C102U | -3.6
C34A C79U | -2.71
C20A C28U G39U G71U C97U C123A | -6.92
C28U G60C A118G | -2.75
G10A G48A G63U C82G A91U G117C | -5.31
C64U U92A | -3.06
A2U G23C G39A A50U G61C A91C G93C A111U | -6
C53A G71U C86U A100U G110U | -4.31
G42C G120A U132A | -0.616
G60A C79U | 0.344
G47U G71U A119U C123A | -2.79

Variant | polymerase ribozyme fitness (log ratio)
G44U A46U A111C | -3.04
U7G G10C G45A G47A U59G G77A | -1.37
U9A C11G G93U A100G | -5.7
G39U C79U C88A G110A G117U | -6.66
C73A G128A | -2.12
C82G C115A C123A | -1.32
G44U G45A U54A C72G | -3.66
G52A C62U G117U | -2.86
U78C C85G U129C | -2.13
C73A C102A | -2.07
A29U C99G A119G G120C | -6.66
C8U G61U A66U C123A U133G | 0.747
G77A U78C A105C A121C | -1.42
A27G G93C C104U | -3.11
U9G C20A U59A | -3.12
C4A U7A | -0.986
C13U G42U G48A U129A | -2.82
A5C G35U C56U G63A C70U U109A G117C U125G U130A | -6.63
U38G G52A G63C | -2.23
C13A G36A G52U C97U A111C | -2.68
C64U U78C | -0.191
C20A A27U A43U | -5.37
A91U C123G | 0.354
C13U A46U C56A C85U | -2.14

Variant | polymerase ribozyme fitness (log ratio)
A27C A43G | -5.95
C72A G110A U131A | -0.37
U32C C53U A103C | -4.2
C56U G61U U112C A118C | -4.53
G77C A90G A111G | -0.0361
G47A G120C U130C | 0.162
A6U A50G C123A G128C | -0.104
A26C C34A C56A C94G A111U | -7
C28G G77U | -3.74
C3U C11A G120C | 0.399
U55G C102A G110A U130A | -6.51
U9A A16U C89U | -0.38
A5G U109G | -4.99
U30C U78A U106C A121U | -2.15
U67C C94A C123U | -6.04
C15U C20A U81G U112G | -6.15
G45U C53U A105U | -3.69
U9A G71U C104U | 0.24
C20A A37G C49A G63A | -4.85
C12A C82A | -0.699
A18C C49U C72G | -3.75
U9A C70U U78A | -0.654
C22U C53A C72U C98U C123U | -4.73
U54G G69U G117U | -3.75

Variant | polymerase ribozyme fitness (log ratio)
C22G C115A | -4.07
C49G C82G A118U | -0.627
C49A A118G | -0.216
U59C U106G | -1.74
A29G G71A U92C U129C | -4.75
U33C G39U | -5.33
C31U A66C U78G U106A C123A | -2.21
C49G G63U U92C | -3.98
C11U G44C C104U U116C | -3.59
U54C G61C C73A G93U | -2.61
C15U A91G A105G U112A | -3.8
C11G C12G C79G C94U G117A U131A | -2.71
C73U A90G C124A | 1.85
G57U G135U | -0.352
G25U C72U | -6.27
A26G G42C | -4.99
C13G U32C U78C | -2.51
C88G G117A | -2.35
G17U A24G A26G U112A | -6.66
A50G G52C G71U C79A G110U | -4.97
C22G C76G | -3.73
G113A U125C | -1.17
U59C G71U C88U U92A | -5.66
G10C A27U U87G | -3.55

Variant | polymerase ribozyme fitness (log ratio)
U7G G51C U55C | -2.32
C20U G61C C114U | -1.73
A29C U54C | -1.78
C20A G52C | -2.97
C8G C79A | -0.929
U78C G135A | -1.44
A37C G122U | -0.263
C20U C40A G44C C49G G71A C115A A119G | -4.83
C88U C97U | -1.02
U9G G19A A37U C70U U78A | -4.73
C12G A46C G60U U109C | -6.49
C12U A41U | -0.786
G47C C70U U78A | -1.82
C49U C53U C72G C114U | -3.44
C4A C86A | -2.74
A5C A84G | -1.64
U21A U33G G42C A43U G63U G117A | -6.65
C15G C20U C73U U78G A111G | -6.71
G61A U106C | 0.151
G69U U78C C102U | 0.0221
U32G C115A | -5.41
G23C G120C | -5.28
C62U U112G C115A U126G | -2.54
C20U A83G C102A | -5.64

Variant | polymerase ribozyme fitness (log ratio)
C88A U92A G113A | -3.73
A24C G65A C85A C101G G113C | -6.86
C3U G61A A91U | -1.66
A27G U106A | -2.32
U30C G42U | -3.85
U7A G17U G52C C64U C123G | -1.52
G17C C80G C124A | -8.59
A121U U130G | 1.98
C13U C79A C115A G127C | -1.14
G36U C79U | -1.62
C8G C89A A105C | -4.02
C4U C15U A43U A46U | -3.46
C15U A41U G48U | -3.71
C70U C82A C123U G128A | -1.76
A18C G35A U59C U112A | -6.14
G42U G93U A118G | -2.35
G60C G128C | -2.73
C99U G110C | -6.69
A6U A26U C34A A43U A121C | -7.38
A18G A41C A43G G57U | -4.59
C56U C124A | 1.7
G63A C102U | -3.27
G10A U55G G69C | -1.36
